In paper PMC8669613 one finds fold co-precipitation above the HA-mCherry control and EC50 data, which are given here for 4 substances.

The target in test [1] is HA-mCherry-tagged SdhA (Legionella pneumophila). In words: co-IP.
Test [2] addresses His-tagged ASH/RhoGAP domain of OCRL (536aa-901aa) (human) (UniProt Q01968). As to the kind of experiment: ELISA. Background: ELISA stands for enzyme-linked immunosorbent assay.
Test [3] has the same target. As to the kind of experiment: ELISA. The source holds these as a separate data set.
For test [4] the target is unchanged. As to the kind of experiment: ELISA. The source holds these as a separate data set.

Where two headings read alike, the source gives them in different places.

His-tagged ASH/RhoGAP domain of OCRL (536aa-901aa) (human), sequence (Q01968 536-901): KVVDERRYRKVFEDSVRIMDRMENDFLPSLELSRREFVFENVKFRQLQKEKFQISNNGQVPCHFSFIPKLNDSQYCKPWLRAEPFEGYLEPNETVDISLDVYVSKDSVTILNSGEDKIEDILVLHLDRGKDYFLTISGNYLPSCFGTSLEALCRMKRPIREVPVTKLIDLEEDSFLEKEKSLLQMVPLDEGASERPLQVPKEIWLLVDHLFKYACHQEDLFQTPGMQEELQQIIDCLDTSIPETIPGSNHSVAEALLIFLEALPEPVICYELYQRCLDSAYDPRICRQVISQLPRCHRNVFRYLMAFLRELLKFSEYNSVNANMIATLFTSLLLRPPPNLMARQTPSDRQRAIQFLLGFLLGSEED
AP complex beta subunit, sequence (P63010 whole entry, one chain of several): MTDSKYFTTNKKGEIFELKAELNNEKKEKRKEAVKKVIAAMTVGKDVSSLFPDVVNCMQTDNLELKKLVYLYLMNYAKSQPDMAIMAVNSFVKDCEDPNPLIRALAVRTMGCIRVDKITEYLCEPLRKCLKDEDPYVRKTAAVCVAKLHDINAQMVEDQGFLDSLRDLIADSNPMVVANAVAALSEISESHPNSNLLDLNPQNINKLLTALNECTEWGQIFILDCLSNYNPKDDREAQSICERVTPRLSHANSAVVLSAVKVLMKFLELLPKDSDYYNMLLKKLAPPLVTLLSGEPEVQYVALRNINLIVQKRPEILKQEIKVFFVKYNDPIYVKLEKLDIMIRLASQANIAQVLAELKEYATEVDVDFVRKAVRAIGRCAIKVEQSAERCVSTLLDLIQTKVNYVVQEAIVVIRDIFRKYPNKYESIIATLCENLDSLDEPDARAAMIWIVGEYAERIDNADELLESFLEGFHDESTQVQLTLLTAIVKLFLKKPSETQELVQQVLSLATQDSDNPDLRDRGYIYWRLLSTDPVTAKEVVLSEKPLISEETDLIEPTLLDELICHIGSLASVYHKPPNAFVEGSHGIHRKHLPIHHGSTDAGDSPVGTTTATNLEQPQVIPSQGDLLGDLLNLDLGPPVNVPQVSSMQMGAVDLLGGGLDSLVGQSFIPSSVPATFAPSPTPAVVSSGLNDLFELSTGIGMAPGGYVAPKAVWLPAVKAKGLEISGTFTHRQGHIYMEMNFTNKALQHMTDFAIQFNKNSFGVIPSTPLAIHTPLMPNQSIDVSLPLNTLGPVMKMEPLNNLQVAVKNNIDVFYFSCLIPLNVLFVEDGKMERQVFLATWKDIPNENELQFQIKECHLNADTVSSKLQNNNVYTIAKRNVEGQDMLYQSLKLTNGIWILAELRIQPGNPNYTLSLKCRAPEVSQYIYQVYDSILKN
GFP-tagged, full-length OCRL, sequence (Q01968 whole entry): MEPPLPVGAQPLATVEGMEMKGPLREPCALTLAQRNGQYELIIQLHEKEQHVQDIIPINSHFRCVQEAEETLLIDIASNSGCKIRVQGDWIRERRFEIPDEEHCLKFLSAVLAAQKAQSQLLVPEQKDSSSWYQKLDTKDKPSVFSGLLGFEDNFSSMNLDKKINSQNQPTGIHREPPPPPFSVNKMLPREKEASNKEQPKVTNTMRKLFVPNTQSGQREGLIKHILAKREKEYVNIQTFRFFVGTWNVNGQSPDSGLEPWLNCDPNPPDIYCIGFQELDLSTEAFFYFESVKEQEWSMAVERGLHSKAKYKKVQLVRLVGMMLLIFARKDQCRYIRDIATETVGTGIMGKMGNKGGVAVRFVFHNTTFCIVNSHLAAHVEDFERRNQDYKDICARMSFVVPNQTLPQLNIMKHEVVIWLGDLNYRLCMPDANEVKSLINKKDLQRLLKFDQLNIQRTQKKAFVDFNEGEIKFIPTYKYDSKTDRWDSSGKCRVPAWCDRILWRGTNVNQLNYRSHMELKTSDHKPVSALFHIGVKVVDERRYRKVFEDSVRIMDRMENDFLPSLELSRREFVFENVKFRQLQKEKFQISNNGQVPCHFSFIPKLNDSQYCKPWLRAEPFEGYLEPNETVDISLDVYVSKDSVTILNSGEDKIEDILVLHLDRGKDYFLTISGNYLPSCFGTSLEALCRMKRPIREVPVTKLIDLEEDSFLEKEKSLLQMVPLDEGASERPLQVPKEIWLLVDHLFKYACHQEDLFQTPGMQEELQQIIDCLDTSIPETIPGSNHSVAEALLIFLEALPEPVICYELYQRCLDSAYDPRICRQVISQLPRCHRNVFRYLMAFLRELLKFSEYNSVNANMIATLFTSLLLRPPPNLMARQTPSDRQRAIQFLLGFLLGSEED

“AP complex beta subunit (from UniProt P63010 1-937) (natural protein)” yielded a fold co-precipitation above the HA-mCherry control in test [1] of 29.5 fold.

With “GFP-tagged, full-length OCRL (from UniProt Q01968 1-901) (natural protein)”, the fold co-precipitation above the HA-mCherry control in test [1] stood at 27.5 fold.

Turning to “GST-SdhA-CBM2 (1029-1260aa) (from UniProt Q6RCQ3 1029-1260) (domain or fragment)”, the EC50 (in general, the concentration needed to bring the measured effect to its halfway point) was 87.4 nM in test [2] and 80.7 nM in test [3].

As for “GST-SdhA-CBM2A (1029-1080aa) (from UniProt Q6RCQ3 1029-1080) (domain or fragment)”, the results for the EC50 in test [3] and in test [4] were 27.2 nM and 8.1 nM, respectively.
